Experimental findings from US20140219913A1 (AbbVie / Abbott, published 2014) are described below.

The target in one test is NGF. Nature of the test: cell-based or functional assay.
Test [1] has as its target T1, Recombinant human B7-1/CD80 Fc chimera (Cat. 140-B1-100, R&D Systems) (human, UniProt P33681 35-242).
T1 construct: extracellular domain; also called B7-1 antigen; Fc part of the bought chimera not given; not described
T1 sequence (looked up): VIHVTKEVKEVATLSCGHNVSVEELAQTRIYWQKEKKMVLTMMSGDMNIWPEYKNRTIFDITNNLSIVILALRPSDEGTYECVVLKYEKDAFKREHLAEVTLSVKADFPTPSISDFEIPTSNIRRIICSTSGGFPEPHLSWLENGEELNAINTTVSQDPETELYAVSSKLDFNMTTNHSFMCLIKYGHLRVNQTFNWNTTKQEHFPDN
Nature of the test: competitive ELISA; coated CD28 Fc, biotinylated B7-1/CD80 Fc (2 nM), construct titrated. The procedure:
(§1) ELISA plates (Nunc, MaxiSorp, Rochester, N.Y.) were incubated overnight at 4° C. with Recombinant Human CD28 Fc Chimera (Cat. #342-CD-200). Plates were washed three times in washing buffer (PBS containing 0.05% Tween 20), and blocked for 1 hour at 25° C. in blocking buffer (PBS containing 1% BSA). Wells were washed three times, and serial dilutions of each antibody or DVD-Ig in PBS containing 0.1% BSA were added to the wells and incubated at 25° C. for 1 hour. The wells were washed three times, and biotinylated antigen (2 nM) was added to the plates and incubated for 1 hour at 25° C. The wells were washed three times and incubated for 1 hour at 25° C. with streptavidin-HRP (KPL #474-3000, Gaithersburg, Md.). The wells were washed three times, and 100 μl of ULTRA-TMB ELISA (Pierce, Rockford, Ill.) was added per well. Following color development the reaction was stopped with 1N HCL and absorbance at 450 nm was measured. Recombinant human B7-1/CD80 Fc chimera (Cat. 140-B1-100, R&D Systems, Minneapolis, Minn.) was used.
(In general: ELISA stands for enzyme-linked immunosorbent assay.)

Test [2] deals with T2, Recombinant human B7-2/CD86 Fc chimera (Cat. 141-B2-100, R&D Systems) (human, UniProt P42081 26-245).
T2 construct: Fc part of the bought chimera not given; not described
T2 sequence (looked up): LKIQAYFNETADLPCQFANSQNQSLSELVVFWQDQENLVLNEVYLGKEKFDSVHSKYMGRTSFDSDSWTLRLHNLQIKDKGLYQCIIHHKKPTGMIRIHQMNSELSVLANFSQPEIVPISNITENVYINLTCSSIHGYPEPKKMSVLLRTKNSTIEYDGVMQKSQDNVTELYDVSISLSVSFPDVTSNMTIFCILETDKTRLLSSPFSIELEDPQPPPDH
The test can be described thus: competitive ELISA; coated CD28 Fc, biotinylated B7-2/CD86 Fc, construct titrated. The procedure:
as §1
Recombinant human B7-2/CD86 Fc chimera (Cat. 141-B2-100, R&D Systems, Minneapolis, Minn.) was used.

The target of test [3] is T1, Recombinant human B7-1/CD80 Fc chimera …. Nature of the test: direct bind ELISA, coated recombinant human B7-1/CD80 Fc chimera. The procedure:
Enzyme Linked Immunosorbent Assays (ELISA) to screen for antibodies that bind a desired target antigen were performed as follows. High bind ELISA plates (Corning Costar #3369, Acton, Mass.) were coated with 100 μL/well of 10 μg/ml of desired target antigen (R&D Systems, Minneapolis, Minn.) or desired target antigen extra-cellular domain/FC fusion protein (R&D Systems, Minneapolis, Minn.) or monoclonal mouse anti-polyHistidine antibody (R&D Systems #MAB050, Minneapolis, Minn.) in phosphate buffered saline (10×PBS, Abbott Bioresearch Center, Media Prep#MPS-073, Worcester, Mass.) overnight at 4° C. Plates were washed four times with PBS containing 0.02% Tween 20. Plates were blocked by the addition of 300 μL/well blocking solution (non-fat dry milk powder, various retail suppliers, diluted to 2% in PBS) for ½ hour at room temperature. Plates were washed four times after blocking with PBS containing 0.02% Tween 20.
One hundred microliters of 10 ng/mL goat anti-human IgG-FC specific HRP conjugated antibody (Southern Biotech #2040-05, Birmingham, Ala.) was added to each well of the desired target antigen plate or anti-polyHistidine antibody/Histidine tagged desired target antigen plate. Alternatively, one hundred microliters of 10 ng/mL goat anti-human IgG-kappa light chain specific HRP conjugated antibody (Southern Biotech #2060-05 Birmingham, Ala.) was added to each well of the desired target antigen/FC fusion plate and incubated for 1 hour at room temperature. Plates were washed 4 times with PBS containing 0.02% Tween 20.
One hundred microliters of enhanced TMB solution (Neogen Corp. #308177, K Blue, Lexington, Ky.) was added to each well and incubated for 10 minutes at room temperature. The reaction was stopped by the addition of 50 μL 1N sulphuric acid. Plates were read spectrophotometrically at a wavelength of 450 nm

B1: Anti-NGF (antibody, V domains shown)
VH: QVQLQESGPGLVKPSETLSLTCTVSGFSLIGYDLNWIRQPPGKGLEWIGIIWGDGTTDYNSAVKSRVTISKDTSKNQFSLKLSSVTAADTAVYYCARGGYWYATSYYFDYWGQGTLVTVSS
VL: DIQMTQSPSSLSASVGDRVTITCRASQSISNNLNWYQQKPGKAPKLLIYYTSRFHSGVPSRFSGSGSGTDFTFTISSLQPEDIATYYCQQEHTLPYTFGQGTKLEIKR
Regarding B1, in the test with NGF, the “C-terminal Bioassay Mean (IC50, nM): Cell Impedance assay” value was 7.8 nM and the “C-terminal Bioassay Mean (IC50, nM): pERK assay” value turned out to be 0.6 nM.

B2: RAB011 (other)
VH: AMHVAQPAVVLASSRGIASFVCEYASPGKYTEVRVTVLRQADSQVTEVCAATYMMGNELTFLDDSICTGTSSGNQVNLTIQGLRAMDTGLYICKVELMYPPPYYEGIGNGTQIYVIDPEPCPDSDASTKGPQVQLQESGPGLVKPSETLSLTCTVSGFSLIGYDLNWIRQPPGKGLEWIGIIWGDGTTDYNSAVKSRVTISKDTSKNQFSLKLSSVTAADTAVYYCARGGYWYATSYYFDYWGQGTLVTVSS
VL: DIQMTQSPSSLSASVGDRVTITCRASQSISNNLNWYQQKPGKAPKLLIYYTSRFHSGVPSRFSGSGSGTDFTFTISSLQPEDIATYYCQQEHTLPYTFGQGTKLEIKR
notes: rDVD-Ig with LEA29Y on the heavy chain only and anti-NGF variable domains; also called RAB011H; RAB011L
A word on the EC50: it is the concentration that produces a half-maximal response. B2: the concentration for a half-maximal effect (EC50) in test [1] is 1.6 nM; in test [2], 1.3 nM.

B3: RAB012 (other)
VH: QVQLQESGPGLVKPSETLSLTCTVSGFSLIGYDLNWIRQPPGKGLEWIGIIWGDGTTDYNSAVKSRVTISKDTSKNQFSLKLSSVTAADTAVYYCARGGYWYATSYYFDYWGQGTLVTVSS
VL: AMHVAQPAVVLASSRGIASFVCEYASPGKYTEVRVTVLRQADSQVTEVCAATYMMGNELTFLDDSICTGTSSGNQVNLTIQGLRAMDTGLYICKVELMYPPPYYEGIGNGTQIYVIDPEPCPDSDTVAAPDIQMTQSPSSLSASVGDRVTITCRASQSISNNLNWYQQKPGKAPKLLIYYTSRFHSGVPSRFSGSGSGTDFTFTISSLQPEDIATYYCQQEHTLPYTFGQGTKLEIKR
notes: rDVD-Ig with LEA29Y on the light chain only and anti-NGF variable domains; also called RAB012H; RAB012L
B3: the EC50 in test [1] amounted to 2.5 nM; in test [2], 4.2 nM.

B4: RAB007 (other)
VH: AMHVAQPAVVLASSRGIASFVCEYASPGKYTEVRVTVLRQADSQVTEVCAATYMMGNELTFLDDSICTGTSSGNQVNLTIQGLRAMDTGLYICKVELMYPPPYYEGIGNGTQIYVIDPEPCPDSDASTKGPEVQLVQSGAEVKKPGASVKVSCKASGYTFTKYWLGWVRQAPGQGLEWMGDIYPGYDYTHYNEKFKDRVTLTTDTSTSTAYMELRSLRSDDTAVYYCARSDGSSTYWGQGTLVTVSS
VL: AMHVAQPAVVLASSRGIASFVCEYASPGKYTEVRVTVLRQADSQVTEVCAATYMMGNELTFLDDSICTGTSSGNQVNLTIQGLRAMDTGLYICKVELMYPPPYYEGIGNGTQIYVIDPEPCPDSDTVAAPDVLMTQTPLSLPVTPGEPASISCTSSQNIVHSNGNTYLEWYLQKPGQSPQLLIYKVSNRFSGVPDRFSGSGSGTDFTLKISRVEAEDVGVYYCFQVSHVPYTFGGGTKVEIKR
notes: rDVD-Ig with LEA29Y on both chains; also called RAB007H; RAB007L
Take B4: the concentration giving a half-maximal response (EC50) in test [1] came to 6.6 nM; in test [2], 2.1 nM.

B5: RAB008 (other)
VH: AMHVAQPAVVLASSRGIASFVCEYASPGKYTEVRVTVLRQADSQVTEVCAATYMMGNELTFLDDSICTGTSSGNQVNLTIQGLRAMDTGLYICKVELMYPPPYYEGIGNGTQIYVIDPEPCPDSDASTKGPEVQLVQSGAEVKKPGASVKVSCKASGYTFTKYWLGWVRQAPGQGLEWMGDIYPGYDYTHYNEKFKDRVTLTTDTSTSTAYMELRSLRSDDTAVYYCARSDGSSTYWGQGTLVTVSS
VL: DVLMTQTPLSLPVTPGEPASISCTSSQNIVHSNGNTYLEWYLQKPGQSPQLLIYKVSNRFSGVPDRFSGSGSGTDFTLKISRVEAEDVGVYYCFQVSHVPYTFGGGTKVEIKR
notes: rDVD-Ig with LEA29Y on the heavy chain only; also called RAB008H; RAB008L
With B5, the values for the 50% effective concentration (EC50) in test [1] and in test [2] were 1.5 nM and 1 nM, respectively.

B6: RAB021 (other)
VH: EVQLVQSGAEVKKPGASVKVSCKASGYTFTKYWLGWVRQAPGQGLEWMGDIYPGYDYTHYNEKFKDRVTLTTDTSTSTAYMELRSLRSDDTAVYYCARSDGSSTYWGQGTLVTVSS
VL: AMHVAQPAVVLASSRGIASFVCEYASPGKYTEVRVTVLRQADSQVTEVCAATYMMGNELTFLDDSICTGTSSGNQVNLTIQGLRAMDTGLYICKVELMYPPPYYEGIGNGTQIYVIDPEPCPDSDQEPKSSDKTHTSPDVLMTQTPLSLPVTPGEPASISCTSSQNIVHSNGNTYLEWYLQKPGQSPQLLIYKVSNRFSGVPDRFSGSGSGTDFTLKISRVEAEDVGVYYCFQVSHVPYTFGGGTKVEIKR
notes: rDVD-Ig with LEA29Y on the light chain only and a QH linker; also called RAB021H; RAB021L
On to B6, for which the EC50 turned out to be 2.4 nM in test [1], 2.5 nM in test [3] and 0.8 nM in test [2].

B7: RAB019 (other)
VH: AMHVAQPAVVLASSRGIASFVCEYASPGKYTEVRVTVLRQADSQVTEVCAATYMMGNELTFLDDSICTGTSSGNQVNLTIQGLRAMDTGLYICKVELMYPPPYYEGIGNGTQIYVIDPEPCPDSDQEPKSSDKTHTSPEVQLVQSGAEVKKPGASVKVSCKASGYTFTKYWLGWVRQAPGQGLEWMGDIYPGYDYTHYNEKFKDRVTLTTDTSTSTAYMELRSLRSDDTAVYYCARSDGSSTYWGQGTLVTVSS
VL: AMHVAQPAVVLASSRGIASFVCEYASPGKYTEVRVTVLRQADSQVTEVCAATYMMGNELTFLDDSICTGTSSGNQVNLTIQGLRAMDTGLYICKVELMYPPPYYEGIGNGTQIYVIDPEPCPDSDQEPKSSDKTHTSPDVLMTQTPLSLPVTPGEPASISCTSSQNIVHSNGNTYLEWYLQKPGQSPQLLIYKVSNRFSGVPDRFSGSGSGTDFTLKISRVEAEDVGVYYCFQVSHVPYTFGGGTKVEIKR
notes: rDVD-Ig with LEA29Y on both chains and QH linkers; also called RAB019H; RAB019L
With B7, in test [3], the binding result is given as “no binding”.

B8: RAB015 (other)
VH: EVQLVQSGAEVKKPGASVKVSCKASGYTFTKYWLGWVRQAPGQGLEWMGDIYPGYDYTHYNEKFKDRVTLTTDTSTSTAYMELRSLRSDDTAVYYCARSDGSSTYWGQGTLVTVSS
VL: AMHVAQPAVVLASSRGIASFVCEYASPGKYTEVRVTVLRQADSQVTEVCAATYMMGNELTFLDDSICTGTSSGNQVNLTIQGLRAMDTGLYICKVELMYPPPYYEGIGNGTQIYVIDPEPCPDSDTVAAPSVFIFPPDVLMTQTPLSLPVTPGEPASISCTSSQNIVHSNGNTYLEWYLQKPGQSPQLLIYKVSNRFSGVPDRFSGSGSGTDFTLKISRVEAEDVGVYYCFQVSHVPYTFGGGTKVEIKR
notes: rDVD-Ig with LEA29Y on the light chain only and a long linker; also called RAB015H; RAB015L
Take B8: the results for the EC50 in test [1] and in test [3] were 78.9 nM and 34.9 nM, respectively.

B9: RAB009 (other)
VH: EVQLVQSGAEVKKPGASVKVSCKASGYTFTKYWLGWVRQAPGQGLEWMGDIYPGYDYTHYNEKFKDRVTLTTDTSTSTAYMELRSLRSDDTAVYYCARSDGSSTYWGQGTLVTVSS
VL: AMHVAQPAVVLASSRGIASFVCEYASPGKYTEVRVTVLRQADSQVTEVCAATYMMGNELTFLDDSICTGTSSGNQVNLTIQGLRAMDTGLYICKVELMYPPPYYEGIGNGTQIYVIDPEPCPDSDTVAAPDVLMTQTPLSLPVTPGEPASISCTSSQNIVHSNGNTYLEWYLQKPGQSPQLLIYKVSNRFSGVPDRFSGSGSGTDFTLKISRVEAEDVGVYYCFQVSHVPYTFGGGTKVEIKR
notes: rDVD-Ig with LEA29Y on the light chain only; also called RAB009H; RAB009L
With B9, the concentration giving a half-maximal response (EC50) in test [1] is 2.7 nM; in test [2], 0.3 nM.
